Reference: patent US20250138018A1 (NEXTPOINT THERAPEUTICS, published 2025)
Each block holds one binder with its values, some of them ahead of it.

Target: T1, CD20 on CD20+ Raji cells (UniProt P11836 1-297, limits assumed)
T1 construct: whole, on cells; Endogenous CD20 of the Raji cell line; also called TAA (CD20)
T1 sequence (looked up): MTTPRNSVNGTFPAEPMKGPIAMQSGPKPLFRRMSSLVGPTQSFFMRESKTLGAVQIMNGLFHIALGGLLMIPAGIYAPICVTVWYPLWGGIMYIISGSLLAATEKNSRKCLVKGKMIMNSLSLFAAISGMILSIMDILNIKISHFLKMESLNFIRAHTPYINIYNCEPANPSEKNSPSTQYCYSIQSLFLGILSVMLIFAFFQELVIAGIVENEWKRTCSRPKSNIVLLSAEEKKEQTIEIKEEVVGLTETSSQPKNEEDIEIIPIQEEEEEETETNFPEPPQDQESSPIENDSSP
Assay: Raji co-culture with TMIGD2-Jurkat NFAT reporter cells; binding told in words, not measured directly
Experimental: Raji cells (2×10⁴) were plated in a 96-well white flat bottom tissue culture plate with anti-TMIGD2/anti-CD20 bispecific antibodies (TK20-17C7-01, TK20-29F8-16, and TK20-39C9-2134) in 50 μl R10 medium (RPMI 1640+10% Fetal bovine serum) at 3-fold serial dilutions ranging from 10-0.5 μg/mL. An anti-CD20 (IgG1 LALA) was included as a negative control. The cells were incubated at 37° C. for 30 minutes. TMIGD2-Jurkat NFAT reporter cells (4×10⁴) were added to each well with 1 μg/mL anti-CD3 antibody (OKT3) in 50 μl R10 medium. Cells were incubated at 37° C. for 6 hours and 100 ul of Bio-Glo™ luciferase assay reagent (Promega®, G7940) was added to each well. Luciferase activity was measured on a plate reader.

binding result: binds
B1: TK20-17C7-01 anti-TMIGD2/anti-CD20 bispecific antibody (bispecific antibody, human IgG1, kappa, L234A L235A)
heavy: not shown
light: QIVLSQSPAILSASPGEKVTMTCRASSSVSYIHWFQQKPGSSPKPWIYATSNLASGVPVRFSGSGSGTSYSLTISRVEAEDAATYYCQQWTSNPPTFGGGTKLEIKRTVAAPSVFIFPPSDEQLKSGTASVVCLLNNFYPREAKVQWKVDNALQSGNSQESVTEQDSKDSTYSLSSTLTLSKADYEKHKVYACEVTHQGLSSPVTKSFNRGEC
notes: Tetravalent Morrison format; copies: 2 + 2

binding result: binds
B2: TK20-39C9-2134 anti-TMIGD2/anti-CD20 bispecific antibody (bispecific antibody, human IgG1, kappa, L234A L235A)
heavy: not shown
light: B1 light
notes: as for B1

binding result: binds
B3: TK20-29F8-16 anti-TMIGD2/anti-CD20 bispecific antibody (bispecific antibody, human IgG1, kappa, L234A L235A)
heavy: not shown
light: B1 light
notes: as for B1
